The supplement of paper PMC9170038

Tested on: MS2 coat protein
Test: apparent KD of MS2 coat protein; designed switch direction (-1 OFF switch, 1 ON switch): 1; higher = weaker reporter binding
In short: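 SNAP-549-labelled MS2 coat protein was titrated, doubling from 0.7 or 1.5 nM to 3 µM, over designed RNA switches transcribed on Illumina chips by stalled E. coli RNA polymerase. Runs were done without input, with 200 uM small-molecule ligand, or with an oligonucleotide input. Apparent KD is the per-design median over clusters of curve-fitted normalised fluorescence.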

[1] = Eterna round: R95, input ligand: FMN 200 uM
[2] = Eterna round: R95, input ligand: microRNA oligo, concentration not stated
[3] = Eterna round: R95, input ligand: none
[4] = input ligand: microRNA oligo, concentration not stated

| Sequence | apparent KD of MS2 coat protein [1] [nM] | apparent KD of MS2 coat protein [2] [nM] | apparent KD of MS2 coat protein [3] [nM] | apparent KD of MS2 coat protein (input ligand: FMN 200 uM) [nM] | apparent KD of MS2 coat protein [4] [nM] | apparent KD of MS2 coat protein (input ligand: none) [nM] |
| --- | --- | --- | --- | --- | --- | --- |
| AACCAACAAAUAAAACAAGCGUGCUCGUCACAUGAGGAUCACCCAUGUUUAAGCGCUGUUCCUACAUCCGCAGCGCC [Inbitiar] (puzzle: Sensor for hsa-mir-208a) | 178 | 32.5 | 232 | – | – | – |
| AACCCGAUGGAAGGAUAUGGCACCUUAUUGGUGCCAGAAGGUCCAAACAUGAGGAUCACCCAUGUGGGCCGGUCGAAAGACCGG [Fiskers NG1ss - 11] (Eterna round: R96, puzzle: Same State NG 1) | – | – | – | 32.4 | 53.2 | 75.2 |
| AACUGUUUCUGAGGAUAUCAGUAGUAUGCCAAUUGAGAAGGCAGUACAUGAGGAUCACCCAUGUUGUGGUUUGAUAGAAUGAUA [JR_SSNG1_Sub003] (Eterna round: R96, puzzle: Same State NG 1) | – | – | – | 182 | 133 | 214 |
| AAGAGAGGAAGCGAGGAUAUCGUGGGAGGGACAUGAGGAUCACCCAUGUAGGAUGUAGAGAGGAACGAGAAGGCGCAGGAAAGAA [JR_SS2_Sub073] (puzzle: Same State 2) | 49 | 67.7 | 79.2 | – | – | – |
| AAGAUGCUCGUAGGAUAUUGGAAAGGAAGUGUACAAGAAGGACGGUGUCACAUGAGGAUCACCCAUGUUACAGUCUAAGGACUA [PowerStrip SSNG 1.16] (Eterna round: R96, puzzle: Same State NG 1) | – | – | – | 21.5 | 13.2 | 20.3 |
| AAGGUGCAGGUACAGGAUAUGUUGCUCGUAACAUGAGGAUCACCCAUGUACCUAUGAGAUUAAAUGCAGAAGGGUGCACACCAAA [Mat - Same State 2 - Mod of UCT - D91] (Eterna round: R96, puzzle: Same State 2) | – | – | – | 70.6 | 168 | 731 |
| AAGGUGCAGGUACAGGAUAUGUUGCUCGUAACAUGAGGAUCACCCAUGUACCUAUGAGAUUAAAUGCAGAAGGGUGCACACCAAA [Mat - Same State 2 - Mod of UCT - D91] (puzzle: Same State 2) | 73 | 484 | 302 | – | – | – |
| AAUAAGUUCAGCUCGUCUUGCGCCGACUGACAUGAGGAUCACCCAUGUGGAUUCCAAGAGAUCCAUUGGCGUGUUUC [Erisdian] (puzzle: Sensor for hsa-mir-208a) | 37.9 | 87.6 | 79 | – | – | – |
| AAUCGUUUGAUAGGAUAUCGCUAUACAUGAGGAUCACCCAUGUUUACCACGCUGGUUUUUCGUACUGAGAAGGAUUCUGAUGAU [JL JR sub007 mod 7] (Eterna round: R96, puzzle: Same State NG 2) | – | – | – | 36.1 | 30.4 | 42.5 |
| AAUUAAGAUUGAGGAUAUCACGUCGAUUAGACGUGAGAAGGCGAUCAUAACAUGAGGAUCACCCAUGUAUUACAUGAAUUAAUU [SSNG1/5-B2] (Eterna round: R96, puzzle: Same State NG 1) | – | – | – | 31.9 | 26.2 | 36.6 |
| AAUUUAAUACAUGAGGAUCACCCAUGUAAUACUAGUAAGAUCUAGGAUAUCAGCUCGAUUAGAGCUGAGAAGGAGAUCACAUGU [SSNG3/19-C2] (Eterna round: R96, puzzle: Same State NG 3) | – | – | – | – | 82.9 | – |
| ACACAGCUGGGUGAGGAUAUCGGUGGUAAAACAUGAGGAUCACCCAUGUCCGAAGCUCGGACUUCCGAGAAGGCGCCCGGCUGCA [Areronanma] (puzzle: Same State 2) | 12.4 | 86.4 | 151 | – | – | – |
| ACAGAGUGAAGACAGGAUAUUCGCGAUGGCACAUGAGGAUCACCCAUGUUUUGAGCACAUAAACAGAAGAAGGGUUAAAACUCAG [Zadier] (Eterna round: R96, puzzle: Same State 2) | – | – | – | 13.6 | 74.1 | 104 |
| ACAGAGUGAAGACAGGAUAUUCGCGAUGGCACAUGAGGAUCACCCAUGUUUUGAGCACAUAAACAGAAGAAGGGUUAAAACUCAG [Zadier] (puzzle: Same State 2) | 15 | 119 | 362 | – | – | – |
| ACAUGAGACGCAGGAUAUCUUGUACCUACAUGUGACAUGAGGAUCACCCAUGUGGUAAGUAUGAUAGAGAAGGGCGAGAUAUGU [Equivalance 56 - Jieux - Same State NG 2] (Eterna round: R96, puzzle: Same State NG 2) | – | – | – | 19.7 | 31.6 | 58.9 |
| ACAUGAGAGAUAGGAUAUGUUGUACCUACAUGUGACAUGAGGAUCACCCAUGUGGUAAGUAUGAGACAGAAGGAUCAGAUAUGU [Equivalence 31 - Jieux - Same State NG 2] (Eterna round: R96, puzzle: Same State NG 2) | – | – | – | 20.8 | 41.4 | 74 |

| Sequence | apparent KD of MS2 coat protein [1] [nM] | apparent KD of MS2 coat protein [2] [nM] | apparent KD of MS2 coat protein [3] [nM] | apparent KD of MS2 coat protein (input ligand: FMN 200 uM) [nM] | apparent KD of MS2 coat protein [4] [nM] | apparent KD of MS2 coat protein (input ligand: none) [nM] |
| --- | --- | --- | --- | --- | --- | --- |
| ACAUGAGGAUCACCCAUGUAGGCUCAGGAAACUGUGCCACAUGAGGAUAUGGAUCCUAAUUGGAUCCAGAAGGCAUGAUUUAUU [Fiskers NG3ss - 21] (Eterna round: R96, puzzle: Same State NG 3) | – | – | – | 243 | 1240 | 1290 |
| ACAUGAGGAUCACCCAUGUAUAGAUUUGAAUCUUAAGUUACGUAGGAUAUCGUGUUUAGUAUCAUCGAGAAGGACGAUCUGAUA [JR_SSNG3_Sub067] (Eterna round: R96, puzzle: Same State NG 3) | – | – | – | 19.7 | 17.2 | 26 |
| ACAUGAGGAUCACCCAUGUAUUUAUAUGAAUCUUAAGUUACGUAGGAUAUCGUCUAUACUAUCAACGAGAAGGACGAACUCAAA [JR_SSNG3_Sub069] (Eterna round: R96, puzzle: Same State NG 3) | – | – | – | 9.51 | 15.3 | 17.4 |
| ACCCGCGGGCCACAUGAGGAUCACCCAUGUGACCGGUGAUCCAAGGAUAUACGUGUGAUAGACGCGUAGAAGGUGGCCAAAACU [Rirazaedat] (Eterna round: R96, puzzle: Same State NG 3) | – | – | – | 127 | 29.3 | 31.9 |
| ACGUCGAUAUCACAGGAUAUACUCACAUCUACAUGAGGAUCACCCAUGUAGCGGUAUUCCGGUGCGUAGAAGGGUGAUGGACGAC [Same State 2 - Mod of Artece v.4] (puzzle: Same State 2) | 14.4 | 12.4 | 12.2 | – | – | – |
| ACUCGGCAGAUAGGAUAUCCUGCAUGGAUAGUAGGAGAAGGAUCGUGCGCACAUGAGGAUCACCCAUGUGCCAAAUAAUAACAA [Reatedor] (Eterna round: R96, puzzle: Same State NG 1) | – | – | – | 11 | 12.8 | 18.4 |
| ACUUAGUACAAUUUAGAUCUACAUGAGGAUCACCCAUGUACUGAGGAUAUCAGCUCGAAUAGAGCUGAGAAGGCAGAAGUACUU [SSNG3/8-A1] (Eterna round: R96, puzzle: Same State NG 3) | – | – | – | – | 192 | – |
| AGAGAACAUGAGGAUCACCCAUGUAGGAUGGGCAUAGGAUAUAGAAGGAUGAAGGAGAAACUAGAAGGAUGAUGGA [JR_SS1_Sub076] (puzzle: Same State 1) | 107 | 145 | 235 | – | – | – |
| AGAGAACAUGAGGAUCACCCAUGUGGGAGAUGCAUAGGAUAUAGGAGAGAGAGCGAGGAACUAGAAGGAUGAUGGA [JR_SS1_Sub081] (puzzle: Same State 1) | 79.7 | 63.7 | 191 | – | – | – |
| AGAUAUCCACGACAUGAGGAUCACCCAUGUUGCUACGACAUGGAGGAUAUUCACGAUACACCUGUGAAGAAGGCUAAGGAUAUU [Eternabot solution 16] (Eterna round: R96, puzzle: Same State NG 3) | – | – | – | 631 | 508 | 776 |
| AGAUCAUGACGAGGAUAUGGAACAUGAGGAUCACCCAUGUAUGUUCCAUAACGCGAAUAAAGAAUCCAGAAGGCGUCGUGGUCA [Mat - Same State NG 2 - JL mod - D30] (Eterna round: R96, puzzle: Same State NG 2) | – | – | – | 10.2 | 78.9 | 89.1 |
| AGAUCAUGACGAGGAUAUGGAACAUGAGGAUCACCCAUGUAUGUUCCAUAACGCGAAUGACGAAUCCAGAAGGCGUCGUGAUCA [Mat - Same State NG 2 - JL mod - D26] (Eterna round: R96, puzzle: Same State NG 2) | – | – | – | 18.1 | 92.1 | 116 |
| AGCCGAGACACAGGAUAUAGAUAUCUACAUGAGGAUCACCCAUGUAGCAACACGUGGUAGUGAUUCUAGAAGGGUGCUCGGCGC [Omei SS(NG)2 Cv8] (Eterna round: R96, puzzle: Same State NG 2) | – | – | – | 25.3 | 170 | 189 |
| AGCCUGCCGCAAGGAUAUGAAGCUUUCGCUCCGUCAGAAGGUGCACAUGAGGAUCACCCAUGUAUGCAGGCCAAGAAAUAAAAC [Inbilerate] (Eterna round: R96, puzzle: Same State NG 1) | – | – | – | 20.1 | 33.9 | 52.9 |
| AGCGAAAUAAGCAAGGAUAUGUAAUUUGGCACAUGAGGAUCACCCAUGUCAAUCCAUUUUUUGGAACAGAAGGUGCAUUUUUUUU [ak third] (puzzle: Same State 2) | 69 | 100 | 102 | – | – | – |
